Measurements taken from patent publication EP4667491A1.

Biological target: human CNTN4 expressed on the cell surface (human) (UniProt Q8IWV2)
Assay: flow cytometry; IgG on human CNTN4-overexpressing HEK293 cells

Chain of human CNTN4 expressed on the cell surface (human) (Q8IWV2 19-1000): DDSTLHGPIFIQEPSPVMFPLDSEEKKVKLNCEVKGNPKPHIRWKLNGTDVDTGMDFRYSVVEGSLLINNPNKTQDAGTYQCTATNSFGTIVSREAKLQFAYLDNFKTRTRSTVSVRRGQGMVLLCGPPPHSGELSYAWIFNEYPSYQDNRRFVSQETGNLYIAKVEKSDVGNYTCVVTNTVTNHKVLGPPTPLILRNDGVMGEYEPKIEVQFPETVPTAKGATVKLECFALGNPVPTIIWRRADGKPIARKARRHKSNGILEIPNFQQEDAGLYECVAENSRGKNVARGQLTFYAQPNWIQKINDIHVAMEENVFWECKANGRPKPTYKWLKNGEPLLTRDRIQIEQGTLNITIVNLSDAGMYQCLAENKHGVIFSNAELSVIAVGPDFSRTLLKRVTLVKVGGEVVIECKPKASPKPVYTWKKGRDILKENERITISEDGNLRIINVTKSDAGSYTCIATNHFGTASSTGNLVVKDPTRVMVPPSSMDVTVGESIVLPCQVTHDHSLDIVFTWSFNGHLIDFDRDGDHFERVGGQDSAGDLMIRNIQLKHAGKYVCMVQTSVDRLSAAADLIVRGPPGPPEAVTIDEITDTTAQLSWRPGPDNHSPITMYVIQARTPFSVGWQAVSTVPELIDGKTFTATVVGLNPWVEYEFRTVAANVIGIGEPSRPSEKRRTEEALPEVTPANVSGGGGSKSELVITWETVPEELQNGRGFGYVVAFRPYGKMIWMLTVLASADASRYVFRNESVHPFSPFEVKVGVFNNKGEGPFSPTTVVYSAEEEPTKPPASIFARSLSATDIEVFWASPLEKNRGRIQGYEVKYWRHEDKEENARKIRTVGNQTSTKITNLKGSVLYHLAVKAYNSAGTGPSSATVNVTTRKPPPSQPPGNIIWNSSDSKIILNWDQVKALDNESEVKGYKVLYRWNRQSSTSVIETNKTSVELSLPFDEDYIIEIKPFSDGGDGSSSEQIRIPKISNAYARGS

**Q.** For human IgG4 antibody (negative control), which Top MFI is on record?
**A.** 13 MFI
